Experimental data: patent publication US20230364000A1, “COMPOSITIONS COMPRISING COMBINATIONS OF COLLAGEN OR ELASTIN POLYPEPTIDES WITH ACTIVE INGREDIENTS AND METHODS OF USING SAME” (Geltor, Inc., priority 2020, published 2023)

Key:
facial skin [1] = assay: Cutometer facial skin elasticity, clinical study of Example 5; type: in vivo, human; conditions: topical facial serum 0.1%, n=15, FIG. 6
Description: In a clinical study (n=15 subjects), subjects used a topical facial serum containing 0.1% of a polypeptide of SEQ ID NO: 16 for 8 weeks, after using a protein-free base facial serum for a 1-week washout period. Topical application of a polypeptide of SEQ ID NO: 16 was associated with increased skin elasticity, measured using a cutometer.

fibroblasts = assay: RNA sequencing of extracellular matrix gene expression in fibroblasts; type: cell-based, human; conditions: 0.03%, 48 hours
Experimental: RNA sequencing was performed to analyze global gene expression. After 48 hours of exposure, fibroblasts were incubated with 0.03% of a polypeptide according to SEQ ID NO: 16. These fibroblasts expressed higher levels of several extracellular matrix genes than cells incubated in media alone. […] This response was similar to fibroblasts treated with Vitamin C (FIG. 2A; “D”).

facial skin [2] = assay: Corneometer skin hydration, clinical study of Example 3; type: in vivo, human; design: key to Corneometer Mean Percent Improvement From BL mean: NI = No Improvement; conditions: 0.1% w/w topical formulation; for Corneometer Mean ± SD: n 14, baseline 42.45 ± 10.06
Experimental: (§1) A clinical study using human subjects to determine the effects of a topical skincare product containing truncated human type 21 collagen (SEQ ID NO: 16) is performed. The research is performed according to U.S. and International standards of Good Clinical Practice (FDA and ICH guidelines) and applicable government regulations.
(§2) A base formulation (control formulation) made of water, olive oil glycereth-8 esters, glycerin, coconut alkanes, hydroxyethyl acrylate/sodium acryloyldimethyl taurate copolymer, pentylene glycol, disodium EDTA, caprylyl glycol, chlorphenesin, phenoxyethanol is prepared. A formulation containing the truncated human type 21 collagen is prepared by adding sufficient collagen to prepare a topical formulation containing 0.1% w/w collagen.
The corneometer CM 820 (Courage+Khazaka, Germany) measures the relative degree of hydration of the skin surface by applying an alternating current to the skin with a closely spaced pair of electrodes and measuring the capacitance. Changes in water content of the skin change the conductance of the capacitive circuit.
The corneometer is able to detect slight changes in the hydration level reproducibly with a measurement time of only about one second. The measurement depth is small (approximately 10-20 μm of stratum corneum) which ensures assessment is not influenced by deeper skin layers.
All subjects undergo corneometer measurements of their face at baseline, immediately post-initial-application, and at weeks 2, 4, and 8. Measurements will be taken in triplicate and averaged for each time point. Measurement location is recorded on a face map for assessment consistency at each time point.
(§3) Improvements in skin hydration, firmness, and elasticity were statistically significant.

facial skin [3] = assay: Cutometer skin firmness and elasticity, clinical study of Example 3; type: in vivo, human; conditions: 0.1% w/w topical formulation; for Cutometer Elasticity (R5 Ur/Ue) Mean ± SD / Cutometer Firmness (R0 Uf) Mean ± SD / Cutometer Elasticity (R2 Ua/Uf) Mean ± SD: n 14; for Cutometer Elasticity (R5 Ur/Ue) Mean ± SD: baseline 0.28 ± 0.06; for Cutometer Firmness (R0 Uf) Mean ± SD: baseline 0.35 ± 0.06; for Cutometer Elasticity (R2 Ua/Uf) Mean ± SD: baseline 0.64 ± 0.09
Experimental: as §1, §2
The Cutometer MPA 580 (Courage+Khazaka, Germany) measures the viscoelastic properties of the skin by applying suction to the skin surface, drawing the skin into the aperture of the probe and determining the penetration depth using an optical measuring system.
The Cutometer outputs include many parameters of different portions of the measurement curve including of R0 (Uf, firmness), R2 (Ua/Uf, gross elasticity), R5 (Ur/Ue, net elasticity), R7 (Ur/Uf, elastic portion) and R9 (R3 [last max amp]-R0 [Uf], fatigue).
All subjects have Cutometer measurements taken on the left or right cheek (following a prepared randomization code) at baseline, immediately post-initial-application, and at weeks 2, 4, and 8. Skin elasticity is reported using the R5 (Ur/Ue) and R2 (Ua/Uf) parameter. As the skin becomes more elastic, this value will increase. Skin Firmness is reported using the R0 (Uf) parameter. As the skin becomes firmer, this value will decrease. Assessment location is recorded on a face map for each subject for consistency of measurements between visits.
as §3

facial skin [4] = assay: Facial wrinkles, clinical study of Example 5; type: in vivo, human; conditions: topical facial serum 0.1%, n=15, FIG. 9
Description: In a clinical study (n=15 subjects), subjects used a topical facial serum containing 0.1% of a polypeptide of SEQ ID NO: 16 for 8 weeks, after using a protein-free base facial serum for a 1-week washout period.

[5] = system: human primary keratinocytes; assay: IL-la ELISA in UVB-irradiated keratinocytes; type: cell-based; conditions: 40 mJ/cm^2 UVB, then 0.1% for 24 hours; compared to untreated UVB-irradiated keratinocytes; FIG. 3
Experimental: Human primary keratinocytes were irradiated with 40 mJ/cm^2 UVB light, and then treated with 0.1% of a polypeptide of SEQ ID NO: 16 for 24 hours. Levels of the pro-inflammatory cytokines IL-la were determined by ELISA.

[6] = system: Human full-thickness skin equivalents (MatTek Epiderm FT co-culture tissue models); assay: Type III collagen production in human full-thickness skin equivalents (pro-collagen type III N-peptide ELISA); type: cell-based; conditions: polypeptide 0.1% w/w, ascorbic acid 2% w/w, FIG. 21

B1: SEQ ID NO: 16: truncated human collagen type 21 alpha 1 without the DsbA secretion tag, recombinantly expressed in E. coli (protein)
chain: AGFPGLPGPAGEPGRHGKDGLMGSPGFKGEAGSPGAPGQDGTRGEPGIPGFPGNRGLMGQKGEIGPPGQQGKKGAPGMPGLMGSNGSPGQPGTPGSKGSKGEPGIQGMPGASGLKGEPGATGSPGEPGYMGLPGIQGKKGDKGNQGEKGIQGQKGENGRQGIPGQQGIQGHHGAKGERGEKGEPGVR
subjects showing improvement with an increase in skin elasticity (facial skin [1]; 2 weeks vs baseline): 100% | subjects showing improvement with an increase in skin elasticity (facial skin [1]; 4 weeks vs baseline): 100% | elastin gene (ELN) expression (fibroblasts; relative to untreated cells and various marine collagens, FIG. 2B): upregulated | collagen type I gene (COL1A) expression (fibroblasts; relative to untreated cells or retinol, similar to Vitamin C, FIG. 2A): upregulated | fibronectin gene (FN1) expression (fibroblasts; relative to untreated cells, retinol and Vitamin C, FIG. 2C): upregulated | Corneometer Mean Percent Improvement From BL mean (facial skin [2]; Immediate): 36.69% | Corneometer Percent of Subjects Showing Improvement From BL (facial skin [2]; Immediate): 100% | Corneometer Mean ± SD (facial skin [2]; Immediate, P-value <0.001*): 57.22 ± 12.47 | Corneometer Mean Percent Improvement From BL mean (facial skin [2]; Week 2): NI | Corneometer Percent of Subjects Showing Improvement From BL (facial skin [2]; Week 2): 14.3% | Corneometer Mean ± SD (facial skin [2]; Week 2, P-value 0.001** (significant worsening)): 35.71 ± 10.77 | Cutometer Elasticity (R2 Ua/Uf) Mean Percent Improvement From BL mean (facial skin [3]; Immediate): 45.85% | Cutometer Elasticity (R5 Ur/Ue) Mean Percent Improvement From BL mean (facial skin [3]; Immediate): 44.57% | Cutometer Elasticity (R5 Ur/Ue) Percent of Subjects Showing Improvement From BL (facial skin [3]; Immediate): 92.9% | Cutometer Firmness (R0 Uf) Mean Percent Improvement From BL mean (facial skin [3]; Immediate): 30.38% | Cutometer Firmness (R0 Uf) Percent of Subjects Showing Improvement From BL (facial skin [3]; Immediate): 100% | Cutometer Elasticity (R5 Ur/Ue) Mean ± SD (facial skin [3]; Immediate, P-value <0.001*): 0.40 ± 0.09 | Cutometer Firmness (R0 Uf) Mean ± SD (facial skin [3]; Immediate, P-value <0.001*, value decreases as skin becomes firmer): 0.24 ± 0.05 | Cutometer Elasticity (R2 Ua/Uf) Mean ± SD (facial skin [3]; Immediate, P-value <0.001*): 0.93 ± 0.13 | Cutometer Elasticity (R2 Ua/Uf) Mean Percent Improvement From BL mean (facial skin [3]; Week 2): 26.93% | Cutometer Elasticity (R5 Ur/Ue) Mean Percent Improvement From BL mean (facial skin [3]; Week 2): 33.36% | Cutometer Elasticity (R5 Ur/Ue) Percent of Subjects Showing Improvement From BL (facial skin [3]; Week 2): 92.9% | Cutometer Firmness (R0 Uf) Mean Percent Improvement From BL mean (facial skin [3]; Week 2): 11.27% | Cutometer Firmness (R0 Uf) Percent of Subjects Showing Improvement From BL (facial skin [3]; Week 2): 78.6% | Cutometer Elasticity (R5 Ur/Ue) Mean ± SD (facial skin [3]; Week 2, P-value <0.001*): 0.37 ± 0.08 | Cutometer Firmness (R0 Uf) Mean ± SD (facial skin [3]; Week 2, P-value 0.028*): 0.31 ± 0.07 | Cutometer Elasticity (R2 Ua/Uf) Mean ± SD (facial skin [3]; Week 2, P-value <0.001*): 0.80 ± 0.09 | facial wrinkles (facial skin [4]; 4 weeks vs baseline): reduction | facial wrinkles (facial skin [4]; 8 weeks vs baseline): reduction | levels of IL-la [5]: lower levels | increase of type III collagen production relative to untreated control ([6]; day 2 supernatant): 82% | production of type III collagen as compared to untreated cells ([6]; each agent alone, day 2, retinol (10, unit not given), hyaluronic acid 0.1% w/w): increased production
